Results as given in IntAct's records for PubMed 33513601.

Target: un13d_human UNC13D (UniProt Q70J99)
Sequence (Q70J99 whole entry): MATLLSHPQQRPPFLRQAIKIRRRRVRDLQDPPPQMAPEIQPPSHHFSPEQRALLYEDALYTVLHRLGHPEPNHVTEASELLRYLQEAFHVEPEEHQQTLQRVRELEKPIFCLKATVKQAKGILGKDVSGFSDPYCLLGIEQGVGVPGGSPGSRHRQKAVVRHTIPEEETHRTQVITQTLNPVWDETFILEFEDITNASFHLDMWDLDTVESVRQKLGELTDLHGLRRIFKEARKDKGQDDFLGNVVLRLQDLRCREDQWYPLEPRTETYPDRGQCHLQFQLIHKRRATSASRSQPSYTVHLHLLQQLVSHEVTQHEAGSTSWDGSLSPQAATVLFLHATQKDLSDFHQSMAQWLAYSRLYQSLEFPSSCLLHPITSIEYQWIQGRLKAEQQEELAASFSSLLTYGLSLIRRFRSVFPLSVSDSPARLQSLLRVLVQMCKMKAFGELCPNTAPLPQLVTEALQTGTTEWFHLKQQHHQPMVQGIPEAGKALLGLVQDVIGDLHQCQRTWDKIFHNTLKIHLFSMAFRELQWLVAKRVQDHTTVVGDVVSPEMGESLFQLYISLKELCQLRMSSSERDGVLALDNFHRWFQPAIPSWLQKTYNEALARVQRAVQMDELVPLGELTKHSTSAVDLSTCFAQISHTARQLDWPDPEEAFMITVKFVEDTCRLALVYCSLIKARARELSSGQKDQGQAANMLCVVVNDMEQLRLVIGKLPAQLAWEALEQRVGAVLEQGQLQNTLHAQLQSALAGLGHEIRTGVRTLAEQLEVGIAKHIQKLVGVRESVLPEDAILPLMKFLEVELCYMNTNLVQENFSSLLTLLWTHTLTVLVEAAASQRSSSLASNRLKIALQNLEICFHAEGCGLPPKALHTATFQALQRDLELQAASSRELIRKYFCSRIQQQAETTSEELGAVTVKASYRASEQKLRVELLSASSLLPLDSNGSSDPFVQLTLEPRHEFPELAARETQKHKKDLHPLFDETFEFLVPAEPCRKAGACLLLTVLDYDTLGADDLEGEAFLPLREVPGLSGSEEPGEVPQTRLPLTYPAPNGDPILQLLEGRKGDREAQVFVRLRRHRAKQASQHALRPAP

Chain of Rho-related GTP-binding protein RhoG (Homo sapiens), P84095 Q61L (P84095 whole entry Q61L): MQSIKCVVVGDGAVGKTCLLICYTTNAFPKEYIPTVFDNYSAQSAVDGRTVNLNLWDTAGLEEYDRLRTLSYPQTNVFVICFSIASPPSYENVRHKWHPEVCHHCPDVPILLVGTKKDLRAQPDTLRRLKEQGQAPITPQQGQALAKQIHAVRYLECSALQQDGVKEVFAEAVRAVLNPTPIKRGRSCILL

- effect of a mutation on the interaction: with no effect
Substance: Rho-related GTP-binding protein RhoG (Homo sapiens), P84095 Q61L
